This note sets out measurements from US20220204565A1.

Bridges are numbered along the chain shown (N, C = ends). Where no end group is shown, it is not given here. [ ]: non-standard residue; d: D form. triazolo‑proline = not defined here

The target in this experiment is HIV-1 BaL.01 Env gp160 on pseudovirus (HIV-1 BaL.01). Put plainly: cell-based or functional assay.

B1: cPT 38 (peptide)
peptide: NIPWK
modifications: N-terminus of Asn 1 acylated by succinic acid whose other carboxyl is amide-bonded to Lys 5 side-chain amine (macrocycle; replaces Asp, no primary NH2); Pro 3 is 4-(4-(4-(thiophen-2-yl)phenyl)-1H-1,2,3-triazol-1-yl)proline; C-terminal amide
In turn, B1 came in with an HIV-1Bal.01 cell infection inhibition IC50 of 882 nM and an HIV-1 infection inhibition, fold decrease in potency against cPT 36 of 8 fold.
[dD]NI[triazolo‑proline]WK-NH2 (lactam 1-6; not fully specified; reading uncertain) [cPT 5] had an HIV-1 infection inhibition, fold decrease in activity against cPT 3 of 7 fold.
With DNIPWK-NH2 (lactam 1-6; not fully specified (residue 4)) [cPT 32], the HIV-1Bal.01 infection inhibition IC50 was found to be 7300 nM.

B2: cPT 16 (peptide)
peptide: DNIPWK-NH2
modifications: lactam 1-6; not fully specified (residue 4); also: Pro4 triazole substituent: phenyl joined through two spacer atoms
B2 yielded an HIV-1Bal.01 infection inhibition IC50 of 2020 nM.
With DNIPWK-NH2 (lactam 1-6; not fully specified (residue 4)) [cPT 33], the HIV-1Bal.01 infection inhibition IC50 turned out to be 6000 nM.
DNI[4‑(4-((2,2'-bithiophen)-5-yl)-1H-1,2,3-triazol-1-yl)proline]WK-NH2 (lactam 1-6) [cPT 37] returned an HIV-1Bal.01 infection inhibition IC50 of 405 nM.
DNI[triazolo‑proline]W[dK]-NH2 (lactam 1-6; not fully specified; reading uncertain) [cPT 4] had an HIV-1 infection inhibition, fold decrease in activity against cPT 3 greater than 50 fold.
For the molecule DNI[triazolo‑Pro][benzothienylalanine]K-NH2 (lactam 1-6; not fully specified) [cPT 14], the HIV-1Bal.01 infection inhibition IC50 worked out at 170 nM.

B3: cPT 30 (peptide)
peptide: DNIPWK-NH2
modifications: lactam 1-6; not fully specified (residue 4); also: Pro4 triazole substituent: isoquinoline moiety
Molecule B3 displayed an HIV-1Bal.01 infection inhibition IC50 of 5000 nM.
For the molecule DNIPWK-NH2 (lactam 1-6; not fully specified (residue 4)) [cPT 31], the HIV-1Bal.01 infection inhibition IC50 is 1800 nM.
